# B1: TAK1wt: wild-type murine TAK1 (long splice form) cloned from kidney, expressed from plasmid in transfected cells (protein)
# chain: MSTASAASSSSSSSASEMIEAPSQVLNFEEIDYKEIEVEEVVGRGAFGVVCKAKWRAKDVAIKQIESESERKAFIVELRQLSRVNHPNIVKLYGACLNPVCLVMEYAEGGSLYNVLHGAEPLPYYTAAHAMSWCLQCSQGVAYLHSMQPKALIHRDLKPPNLLLVAGGTVLKICDFGTACDIQTHMTNNKGSAAWMAPEVFEGSNYSEKCDVFSWGIILWEVITRRKPFDEIGGPAFRIMWAVHNGTRPPLIKNLPKPIESLMTRCWSKDPSQRPSMEEIVKIMTHLMRYFPGADEPLQYPCQYSDEGQSNSATSTGSFMDIASTNTSNKSDTNMEQVPATNDTIKRLESKLLKNQAKQQSESGRLSLGASRGSSVESLPPTSEGKRMSADMSEIEARIVATAAYSKPKRGHRKTASFGNILDVPEIVISGNGQPRRRSIQDLTVTGTEPGQVSSRSSSPSVRMITTSGPTSEKPARSHPWTPDDSTDTNGSDNSIPMAYLTLDHQLQPLAPCPNSKESMAVFEQHCKMAQEYMKVQTEIALLLQRKQELVAELDQDEKDQQNTSRLVQEHKKLLDENKSLSTYYQQCKKQLEVIRSQQQKRQGTS
# modifications: left off: small tags and cut ends
# notes: wild-type murine TAK1 (long splice form) cloned from kidney, expressed from plasmid in transfected cells
# B2: TAKDN: TAK1 Δ1-300 N-terminal deletion mutant (protein)
# chain: PCQYSDEGQSNSATSTGSFMDIASTNTSNKSDTNMEQVPATNDTIKRLESKLLKNQAKQQSESGRLSLGASRGSSVESLPPTSEGKRMSADMSEIEARIVATAAYSKPKRGHRKTASFGNILDVPEIVISGNGQPRRRSIQDLTVTGTEPGQVSSRSSSPSVRMITTSGPTSEKPARSHPWTPDDSTDTNGSDNSIPMAYLTLDHQLQPLAPCPNSKESMAVFEQHCKMAQEYMKVQTEIALLLQRKQELVAELDQDEKDQQNTSRLVQEHKKLLDENKSLSTYYQQCKKQLEVIRSQQQKRQGTS
# modifications: left off: small tags and cut ends
# notes: TAK1 Δ1-300 N-terminal deletion mutant
# What was measured:
# [1] = system: C3H10T½-BMP2 cells; assay: FACS for apoptosis and cell cycle progression; type: cell-based, murine; settings: CDDP 25 μM, TAK1 variants stably co-expressed; for apoptosis (subG0-G1 peak): etoposide 10 μM
# Experimental: Exponentially growing cells were harvested 48 hours post-seeding or at different stages at and after confluence by trypsinization and fixation with 80% methanol. Cellular DNA content was determined by staining cells with RNAseS/propidium iodide, and measuring fluorescence in a Becton Dickinson FACScan. For each cell population, 10,000 cells were analyzed, and the proportions in G0/G1, G2/M and S-phases were estimated by using Modfit cell cycle analysis software. Information on cell size (e.g. due to differentiation) and complexity could be obtained from forward and side scatter data following evaluation of relevant cell populations.
# To determine whether TAK1-mediated effects in the assay systems above resulted from apoptosis, C3H10T½-BMP2 cells co-expressing TAK1 variants were assayed by FACS for apoptosis and cell cycle progression.
# [2] = system: SMAD proteins; assay: Co-immunoprecipitation of TAK1 variants with SMADs from HEK293T cells; type: binding; settings: SMAD7, R-SMADs 1-3, 5, SMAD4
# Experimental: (§1) Co-immunoprecipitation were conducted as described (Verschueren K et al, J. Biol. Chem, 274: 20489-20498, 1999). Human embryonic kidney (HEK) 293T cells were plated at 3×10^6 cells/petri dish (55 square centimeters (cm^2)) one day prior to transfection. For transient transfections, 1 μg of Flag-tagged expression plasmid and 2 μg of Myc- or HA-tagged expression plasmids were utilized. DNA content was normalized with empty vector. Transfections were performed with FuGENE6 (Roche, Mannheim). Roughly 36 hours post-transfection cells were dislodged from dishes and harvested by centrifugation. Pellets were shock frozen in liquid nitrogen. […] reactions were performed in lysis buffer. Cell extracts and immunoprecipitates were analyzed by SDS-PAGE and Western blot analysis using the appropriate antibodies.
# Toward this end, co-immunoprecipitation with various combinations of wild-type TAK1 (TAK1wt) and R-SMADs, either in a latent form or post-activation by constitutively active BMP type I receptor (ALK6ca, BMPR-IB) or activin type I receptor ALK4ca (ActR-IB), I-SMADs and SMAD4, were conducted. […] TAK1 interaction with R-SMADs was typically stronger in the absence of constitutively active receptors (the exception being SMAD3), which may reflect a reduced affinity for activated, i.e. phosphorylated R-SMADs by TAK1, except with SMAD3.
# SMAD proteins only bind TAK1 with an intact or a constitutively active kinase domain. Different TAK1 variants such as TAK1wt, TAK1ca, TAK1dn and two deletions, TAKDN (lacking amino acids 1-300; FIG. 1a) and TAKDC (lacking 301-606; FIG. 1a), respectively, were tested for their ability to bind to R-SMADs (using SMAD1 as a representative) or I-SMAD6 and I-SMAD7.
# [3] = biological target: T1, SMAD1:SMAD4 interaction (Homo sapiens, UniProt Q13485+Q15797); assay: Co-immunoprecipitation of SMAD1:SMAD4 hetero-oligomerization in HEK293T cells; type: cell-based; settings: receptor-mediated hetero-oligomerization
# T1 construct: expressed in transfected cells; host or cells: HEK293T
# Experimental: as §1
# R-SMAD hetero-oligomerization with SMAD4 and subsequent accumulation in the nucleus is essential for biological activity.
# [4] = system: SMAD1-mediated transcription; assay: SMAD1-SBE CAT reporter assay; type: cell-based, human; settings: dose-dependent, following activation by constitutively active receptors
# Experimental: Reporter assays using the GALA DNA binding domain fused to various forms of SMAD proteins were performed as described (Meersseman, G at al, Mech. Dev, 61: 127-140, 1997). Briefly, 420 nanograms (ng) DNA was transfected/well (24 well-plate seeded with 1×10^5 HEK 293T cells) one day prior to transfection. The DNA mix included a plasmid expressing β-galactosidase under the control of the RSV promoter, for normalization purposes and a reporter plasmid encoding firefly luciferase under the control of 5 GAL4 binding sites upstream of a minimal TATA box (pG5 luc, Promega, Mannheim) and combinations of effector plasmids. The DNA content was normalized with empty vector.
# Cells were harvested and lysed. β-Galactosidase (β-gal) activity was measured via the luminescent β-galactosidase kit II (Clontech, Palo Alto, Calif.), and luciferase activity via the luciferase assay system (Promega, Mannheim). All results are expressed as luciferase activity normalized with β-gal values (“relative luciferase activities”). Reporter assays with the SMAD1 DNA binding element SBE-9 (GCCG×9) (Kusanagi K et al, Mol Biol Cell 11: 555-565, 2000) cloned into pCAT5 vector (Boshart M et al, Gene 110: 129-130, 1992) were performed similarly except that cells were lysed in CAT lysis buffer. CAT enzyme was measured via CAT ELISA assay and β-gal via chemiluminescent β-gal reporter gene assay (Roche, Mannheim). […]
# [5] = system: C3H10T½-BMP2 cells; assay: Histological analysis and alkaline phosphatase staining of C3H10T½-BMP2 cells; type: cell-based, murine
# Experimental: Murine C3H10T½ progenitor cells were cultured in high-glucose DMEM containing 10% fetal calf serum, as described (Ahrens Met al, DNA Cell Biol, 12: 871-880, 1993). Cells were stably transfected with expression plasmids encoding wt TAK1, dominant-negative (dn) or constitutively active (ca) TAK1 in pMT7T3-f1 using DOSPER™ according to the manufacturer's protocol (Roche, Mannheim) and a selection plasmid conferring puromycin resistance (pBSpacDp: parental C3H10T½ cells) or G418-resistance (pAG60: BMP2-expressing C3H10T½ cells). Individual clones were picked, propagated, and tested for recombinant expression of TAK1-variants by RT-PCR using a vector-specific and a gene-specific primer. Control cell lines (empty to expression vector) were established at the same time. Cells were plated at a density of 5,000 cells/cm^2. After reaching confluence (arbitrarily termed day 0) ascorbic acid (50 microgram/milliliter (μg/ml)) and b-glycerophosphate (10 millimolar (mM)) were added.
# (§2) Proteoglycan-secreting chondrocytes were identified by staining with Alcian Blue at pH 2.5 (Alcian Blue 8GS, Roth, Karlsruhe).
# Osteoblast formation was evaluated as a measure of TAK1 influence on osteo-/chondrogenic differentiation potential. C3H10T½-BMP2 cells co-expressing TAK1 and its molecular variants were assessed histologically for alkaline phosphatase (ALP) activity (FIG. 8C), which is indicative of osteoblast differentiation.
# [6] = system: C3H10T½-BMP2 cells; assay: Semi-quantitative RT-PCR of osteo-/chondrogenic marker genes and Alcian Blue staining; type: cell-based, murine; settings: co-expression in C3H10T½-BMP2 cells
# Experimental: as §2
# Total cellular RNA was prepared by TriReagent LS according to the manufacturer's protocol (Molecular Research Center Inc., Ohio, Miss.). Five μg of total RNA was reverse transcribed with oligo-dT primers and cDNA aliquots were subjected to PCR. RT-PCR was normalized by the transcriptional levels of HPRT. The primer pairs and PCR conditions used to evaluate osteo-/chondrogenic differentiation, for collagen Ia1, collagen IIa1, osteocalcin, and the PTH/PTHrP-receptor have been described (Hoffmann A et al, J. Cell Sci 115: 769-781, 2002).
# [7] = system: p38 MAPK and JNK phosphorylation; assay: p38 MAPK and JNK phosphorylation in transfected cells; type: cell-based; settings: data not shown
# Source text: Among nine tissues examined, both TAK1 long and short forms were expressed in every tissue assessed apart from kidney (FIG. 1B). TAK1 tissue-specific expression levels varied, with minimal lung expression detected. Both TAK1 splice variants were comparably expressed in the mesenchymal progenitor line, C3H10T½ (see FIG. 8A). TAK1 mutants generated from the long transcript form included dominant-negative (TAK1dn) and constitutively active (TAK1ca) variants as compared to wild-type control (TAK1wt).
# T1 sequence (Q15797 whole entry): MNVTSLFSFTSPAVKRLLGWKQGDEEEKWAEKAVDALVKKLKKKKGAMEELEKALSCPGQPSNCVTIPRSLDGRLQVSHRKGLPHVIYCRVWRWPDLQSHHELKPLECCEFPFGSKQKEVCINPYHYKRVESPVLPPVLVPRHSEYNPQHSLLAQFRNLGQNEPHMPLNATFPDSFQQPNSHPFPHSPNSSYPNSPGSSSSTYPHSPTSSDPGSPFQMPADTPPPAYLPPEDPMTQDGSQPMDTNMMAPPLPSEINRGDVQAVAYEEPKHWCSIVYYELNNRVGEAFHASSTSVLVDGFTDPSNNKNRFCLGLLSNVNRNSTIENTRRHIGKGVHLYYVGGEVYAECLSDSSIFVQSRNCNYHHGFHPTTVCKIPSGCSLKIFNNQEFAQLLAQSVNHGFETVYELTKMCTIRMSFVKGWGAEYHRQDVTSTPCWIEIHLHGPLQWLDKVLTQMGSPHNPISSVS
# T1 sequence (Q13485 whole entry): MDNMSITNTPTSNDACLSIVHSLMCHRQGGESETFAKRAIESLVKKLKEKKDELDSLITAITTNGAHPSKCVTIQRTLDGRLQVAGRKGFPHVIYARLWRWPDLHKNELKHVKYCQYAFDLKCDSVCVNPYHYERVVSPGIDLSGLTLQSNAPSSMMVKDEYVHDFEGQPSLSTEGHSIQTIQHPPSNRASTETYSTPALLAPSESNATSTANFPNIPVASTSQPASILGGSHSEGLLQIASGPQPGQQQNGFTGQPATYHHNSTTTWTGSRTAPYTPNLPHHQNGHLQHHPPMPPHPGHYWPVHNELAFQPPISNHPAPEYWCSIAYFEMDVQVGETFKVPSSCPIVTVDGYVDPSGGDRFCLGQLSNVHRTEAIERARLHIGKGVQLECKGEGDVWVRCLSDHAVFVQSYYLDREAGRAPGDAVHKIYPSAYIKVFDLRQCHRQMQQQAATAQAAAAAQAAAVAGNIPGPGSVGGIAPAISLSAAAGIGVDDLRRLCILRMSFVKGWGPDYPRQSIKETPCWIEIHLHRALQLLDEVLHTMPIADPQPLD
molecule,measurement,setting,value
COc1cc([C@@H]2c3cc4c(cc3[C@@H](O[C@@H]3O[C@@H]5CO[C@@H](C)O[C@H]5[C@H](O)[C@H]3O)[C@H]3COC(=O)[C@H]23)OCO4)cc(OC)c1O [etoposide],apoptosis (subG0-G1 peak),[1],induced a significant subG0-G1 peak
"[NH2][Pt]([NH2])([Cl])[Cl] [CDDP, cisplatin]",cell cycle effect,[1],arrested maturation in the G2-M phase
same,apoptosis (subG0-G1 peak),[1],did not cause measurable apoptosis
B1,binding of TAK1 variant to SMAD proteins (co-immunoprecipitation),[2],able to interact
same,SMAD1:SMAD4 interaction,[3],enhanced
same,maximum reduction of SMAD1 transcription (CAT reporter),[4],30%
same,growth phenotype of C3H10T½-BMP2 cells expressing the TAK1 variant,[5]; after confluence,C3H10T½ wild-type phenotype
same,osteoblast-like cell formation / ALP activity,"[5]; compared to C3H10T½-BMP2 cells, 10 days post-confluence",interfered with osteoblast-like cell formation
same,"expression of osteogenic marker genes (osteocalcin, PTH/PTHrP receptor)",[6],down-regulated expression of osteogenic genes
same,apoptosis (subG0-G1 peak),[1],did not induce apoptosis
same,biological activity as evidenced by p38 MAPK and JNK phosphorylation,[7],biologically active
B2,binding of TAK1 variant to SMAD proteins (co-immunoprecipitation),[2],unable to bind significantly
